Molecular target: the molecule itself
Assay: cryo-EM structure; TMEM16F in MSP2N2-SoyPC nanodiscs with PIP2 and 4 mM CaCl2, without drug or with 50 uM niclosamide or 100 uM 1PBC; no C2 symmetry imposed

B1: TMEM16F (natural protein, UniProt Q6P9J9 1-911, looked up)
chain: MQMMTRKVLLNMELEEDDDEDGDIVLENFDQTIVCPTFGSLENQQDFRTPEFEEFNGKPDSLFFTDGQRRIDFILVYEDESKKENNKKGTNEKQKRKRQAYESNLICHGLQLEATRSVSDDKLVFVKVHAPWEVLCTYAEIMHIKLPLKPNDLKTRSPFGNLNWFTKVLRVNESVIKPEQEFFTAPFEKSRMNDFYILDRDSFFNPATRSRIVYFILSRVKYQVMNNVNKFGINRLVSSGIYKAAFPLHDCRFNYESEDISCPSERYLLYREWAHPRSIYKKQPLDLIRKYYGEKIGIYFAWLGYYTQMLLLAAVVGVACFLYGYLDQDNCTWSKEVCDPDIGGQILMCPQCDRLCPFWRLNITCESSKKLCIFDSFGTLIFAVFMGVWVTLFLEFWKRRQAELEYEWDTVELQQEEQARPEYEAQCNHVVINEITQEEERIPFTTCGKCIRVTLCASAVFFWILLIIASVIGIIVYRLSVFIVFSTTLPKNPNGTDPIQKYLTPQMATSITASIISFIIIMILNTIYEKVAIMITNFELPRTQTDYENSLTMKMFLFQFVNYYSSCFYIAFFKGKFVGYPGDPVYLLGKYRSEECDPGGCLLELTTQLTIIMGGKAIWNNIQEVLLPWVMNLIGRYKRVSGSEKITPRWEQDYHLQPMGKLGLFYEYLEMIIQFGFVTLFVASFPLAPLLALVNNILEIRVDAWKLTTQFRRMVPEKAQDIGAWQPIMQGIAILAVVTNAMIIAFTSDMIPRLVYYWSFSIPPYGDHTYYTMDGYINNTLSVFNITDFKNTDKENPYIGLGNYTLCRYRDFRNPPGHPQEYKHNIYYWHVIAAKLAFIIVMEHIIYSVKFFISYAIPDVSKITKSKIKREKYLTQKLLHESHLKDLTKNMGIIAERIGGTVDNSVRPKLE
modifications: glycans on the extracellular loops
notes: Sample in lipid nanodiscs (MSP2N2, SoyPC) with PIP2 and 4 mM CaCl2; also called mTMEM16F; TMEM16F dimer; source: HEK293s cells, extracted and purified in DDM/CHS, reconstituted in MSP2N2-SoyPC nanodiscs, FPLC
Q: Which “stoichiometry N” value does the source give for B1 here?
A: 2

Source: PMC10423226, “Identification of a drug binding pocket in TMEM16F calcium-activated ion channel and lipid scramblase” (Nature Communications, 2023)
